Measured values as given in patent publication US20240190936A1 (Eli Lilly, published 2024).
*1 amine or outer side, *2 acyl side, *3 side chain or, on linkers, in order; H or OH if unused. Where no end group is shown, it is not given here. Side-chain parts run from the residue outwards. [ ]: non-standard residue; d: D form. The star is where a group is joined. C20 diacid = O=C(O)CCCCCCCCCCCCCCCCCCC(=O)*; αMePhe(2-F) = C[C@](N)(Cc1ccccc1F)C(=O)O; γGlu = O=C(O)[C@H](CCC(=O)[*:2])N[*:1]; AEEA = NCCOCCOCC(=O)O; Aib = CC(C)(N)C(=O)O

Experiments:
human glucagon receptor [1] = target: T1, human glucagon receptor (human, UniProt P47871 26-477); assay: radioligand competition SPA, membranes of HEK293 cells overexpressing human GcgR
T1 construct: whole, on cells; cAMP assays used the whole cells; also called GcgR; hGcgR
T1 sequence (P47871 26-477): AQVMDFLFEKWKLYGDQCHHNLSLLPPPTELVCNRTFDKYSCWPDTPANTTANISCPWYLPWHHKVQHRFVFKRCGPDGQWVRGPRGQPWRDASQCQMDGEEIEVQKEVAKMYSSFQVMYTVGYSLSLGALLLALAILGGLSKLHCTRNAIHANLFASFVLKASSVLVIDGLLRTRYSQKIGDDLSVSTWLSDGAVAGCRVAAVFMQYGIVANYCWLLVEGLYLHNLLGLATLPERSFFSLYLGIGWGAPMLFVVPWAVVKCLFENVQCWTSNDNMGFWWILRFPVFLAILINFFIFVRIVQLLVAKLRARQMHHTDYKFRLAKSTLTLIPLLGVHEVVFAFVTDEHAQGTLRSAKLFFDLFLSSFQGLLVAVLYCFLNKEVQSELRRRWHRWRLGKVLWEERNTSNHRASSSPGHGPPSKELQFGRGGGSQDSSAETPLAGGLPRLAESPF
Method: (§1) Radioligand competition binding assays are run to determine the equilibrium dissociation constant for Example compounds and comparator molecules.
(§2) The assays are performed in the presence of bacitracin as a non-specific blocking agent to prevent acylated moieties of test analogs from binding to protein components used in standard assay buffers (e.g., albumin).
(§3) Competition curves are plotted as the percent specific inhibition (y-axis) versus log concentration of compound (x-axis) and analyzed using a four parameter nonlinear regression fit with variable slope (ABase or Genedata).

human GIP receptor [2] = target: T2, human GIP receptor (human, UniProt P48546 22-466); assay: radioligand competition SPA, membranes of HEK293 cells overexpressing human GIPR
T2 construct: whole, on cells; cAMP assays used the whole cells; also called hGIPR
T2 sequence (looked up): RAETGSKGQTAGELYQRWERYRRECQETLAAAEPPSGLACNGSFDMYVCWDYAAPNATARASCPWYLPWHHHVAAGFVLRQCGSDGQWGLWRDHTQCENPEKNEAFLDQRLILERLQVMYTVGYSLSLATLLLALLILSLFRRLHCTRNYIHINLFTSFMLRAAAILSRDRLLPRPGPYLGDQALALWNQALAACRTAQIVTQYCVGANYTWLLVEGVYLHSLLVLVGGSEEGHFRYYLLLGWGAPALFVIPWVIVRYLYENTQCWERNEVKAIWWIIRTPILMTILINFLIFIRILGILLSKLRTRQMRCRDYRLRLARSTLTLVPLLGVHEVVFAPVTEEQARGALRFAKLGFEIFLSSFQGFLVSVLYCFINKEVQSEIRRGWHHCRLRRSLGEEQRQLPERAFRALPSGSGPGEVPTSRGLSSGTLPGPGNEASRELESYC
Method: as §1, §2, §3

human GIP receptor [3] = target: T2, human GIP receptor; assay: cell-based or functional assay
human glucagon receptor [4] = target: T1, human glucagon receptor; assay: cell-based or functional assay
human GLP-1 receptor [5] = target: T3, human GLP-1 receptor (human, UniProt P43220 24-463); assay: cell-based or functional assay
human GIP receptor [6] = target: T2, human GIP receptor; assay: cell-based or functional assay; remark: listed apart in the source
human glucagon receptor [7] = target: T1, human glucagon receptor; assay: cell-based or functional assay; remark: listed apart in the source
human GLP-1 receptor [8] = target: T3, human GLP-1 receptor; assay: cell-based or functional assay; remark: listed apart in the source
human GLP-1 receptor [9] = target: T3, human GLP-1 receptor; assay: radioligand competition SPA, membranes of HEK293 cells overexpressing human GLP-1R
Method: as §1, §2, §3

B1: Example 1 (peptide)
peptide: YXQGTXTSDYSILLDKKAQXAFIEYLLEGGPSSGAPPPS
modifications: Aib at 2; αMeF at 6; K17 conjugated at the epsilon-amino group with (2-[2-(2-amino-ethoxy)-ethoxy]-acetyl)2-(γGlu)-CO-(CH2)18-CO2H; Aib at 20; C-terminal amide
notes: Synthetic acylated peptide
- Ki (human glucagon receptor [1]): 0.955 nM
- Ki (human GIP receptor [2]): 0.0278 nM
- cAMP EC50, in the presence of FBS and BSA (human GIP receptor [3]): 1.82 nM
- cAMP EC50, in the presence of FBS and BSA (human glucagon receptor [4]): 6.33 nM
- cAMP EC50, in the presence of FBS and BSA (human GLP-1 receptor [5]): 12.6 nM
- cAMP EC50, in the presence of 0.1% casein (human GIP receptor [6]): 0.0226 nM
- cAMP EC50, in the presence of 0.1% casein (human glucagon receptor [7]): 0.158 nM
- cAMP EC50, in the presence of 0.1% casein (human GLP-1 receptor [8]): 0.112 nM
- Ki (human GLP-1 receptor [9]): 2.51 nM

B2: Example 2 (peptide)
peptide: YXQGTXTSDYSIXLDKKAQXAFIEYLLEGGPSSGAPPPS
modifications: Aib at 2; αMeF at 6; αMeL at 13; K17 conjugated at the epsilon-amino group with (2-[2-(2-amino-ethoxy)-ethoxy]-acetyl)2-(γGlu)-CO-(CH2)18-CO2H; Aib at 20; C-terminal amide
notes: Synthetic acylated peptide
- Ki (human glucagon receptor [1]): 1.49 nM
- Ki (human GIP receptor [2]): 0.0413 nM
- cAMP EC50, in the presence of FBS and BSA (human GIP receptor [3]): 1.34 nM
- cAMP EC50, in the presence of FBS and BSA (human glucagon receptor [4]): 4.75 nM
- cAMP EC50, in the presence of FBS and BSA (human GLP-1 receptor [5]): 11.6 nM
- cAMP EC50, in the presence of 0.1% casein (human GIP receptor [6]): 0.0329 nM
- cAMP EC50, in the presence of 0.1% casein (human glucagon receptor [7]): 0.096 nM
- cAMP EC50, in the presence of 0.1% casein (human GLP-1 receptor [8]): 0.106 nM
- Ki (human GLP-1 receptor [9]): 2.41 nM

B3: Example 4 (peptide)
peptide: YXQGTXTSDYSILLDKKAQXAFIEYLLEGGPSSGAPPPS
modifications: Aib at 2; αMeF(2F) at 6; K17 conjugated at the epsilon-amino group with (2-[2-(2-amino-ethoxy)-ethoxy]-acetyl)-(γGlu)-CO-(CH2)18-CO2H; Aib at 20; C-terminal amide
notes: Synthetic acylated peptide
- Ki (human glucagon receptor [1]): 0.637 nM
- Ki (human GIP receptor [2]): 0.0832 nM
- cAMP EC50, in the presence of FBS and BSA (human GIP receptor [3]): 1.37 nM
- cAMP EC50, in the presence of FBS and BSA (human glucagon receptor [4]): 1.78 nM
- cAMP EC50, in the presence of FBS and BSA (human GLP-1 receptor [5]): 10.6 nM
- cAMP EC50, in the presence of 0.1% casein (human GIP receptor [6]): 0.0321 nM
- cAMP EC50, in the presence of 0.1% casein (human glucagon receptor [7]): 0.0296 nM
- cAMP EC50, in the presence of 0.1% casein (human GLP-1 receptor [8]): 0.145 nM
- Ki (human GLP-1 receptor [9]): 1.21 nM

B4: Example 3 (peptide)
peptide: YXHGTXTSDYSILLDKKAQXAFIEYLLEGGPSSGAPPPS
modifications: Aib at 2; αMeF(2F) at 6; K17 conjugated at the epsilon-amino group with (2-[2-(2-amino-ethoxy)-ethoxy]-acetyl)2-(γGlu)-CO-(CH2)18-CO2H; Aib at 20; C-terminal amide
notes: Synthetic acylated peptide
- Ki (human glucagon receptor [1]): 0.469 nM
- Ki (human GIP receptor [2]): 0.0684 nM
- cAMP EC50, in the presence of FBS and BSA (human GIP receptor [3]): 1.37 nM
- cAMP EC50, in the presence of FBS and BSA (human glucagon receptor [4]): 3.46 nM
- cAMP EC50, in the presence of FBS and BSA (human GLP-1 receptor [5]): 13.1 nM
- cAMP EC50, in the presence of 0.1% casein (human GIP receptor [6]): 0.0215 nM
- cAMP EC50, in the presence of 0.1% casein (human glucagon receptor [7]): 0.0301 nM
- cAMP EC50, in the presence of 0.1% casein (human GLP-1 receptor [8]): 0.104 nM
- Ki (human GLP-1 receptor [9]): 1.66 nM

B5: Example 5 (peptide)
peptide: Y[Aib]QGT[αMePhe(2-F)]TSDYSILLDKK([AEEA-γGlu-C20 diacid])AQQAFIEYLLEGGPSSGAPPPS-NH2
modifications: N-terminus assumed
SMILES: CC[C@H](C)[C@H](NC(=O)[C@H](Cc1ccccc1)NC(=O)[C@H](C)NC(=O)[C@H](CCC(N)=O)NC(=O)[C@H](CCC(N)=O)NC(=O)[C@H](C)NC(=O)[C@H](CCCCNC(=O)COCCOCCNC(=O)CC[C@H](NC(=O)CCCCCCCCCCCCCCCCCCC(=O)O)C(=O)O)NC(=O)[C@H](CCCCN)NC(=O)[C@H](CC(=O)O)NC(=O)[C@H](CC(C)C)NC(=O)[C@H](CC(C)C)NC(=O)[C@@H](NC(=O)[C@H](CO)NC(=O)[C@H](Cc1ccc(O)cc1)NC(=O)[C@H](CC(=O)O)NC(=O)[C@H](CO)NC(=O)[C@@H](NC(=O)[C@](C)(Cc1ccccc1F)NC(=O)[C@@H](NC(=O)CNC(=O)[C@H](CCC(N)=O)NC(=O)C(C)(C)NC(=O)[C@@H](N)Cc1ccc(O)cc1)[C@@H](C)O)[C@@H](C)O)[C@@H](C)CC)C(=O)N[C@@H](CCC(=O)O)C(=O)N[C@@H](Cc1ccc(O)cc1)C(=O)N[C@@H](CC(C)C)C(=O)N[C@@H](CC(C)C)C(=O)N[C@@H](CCC(=O)O)C(=O)NCC(=O)NCC(=O)N1CCC[C@H]1C(=O)N[C@@H](CO)C(=O)N[C@@H](CO)C(=O)NCC(=O)N[C@@H](C)C(=O)N1CCC[C@H]1C(=O)N1CCC[C@H]1C(=O)N1CCC[C@H]1C(=O)N[C@@H](CO)C(N)=O
notes: Synthetic acylated peptide
- Ki (human glucagon receptor [1]): 0.419 nM
- Ki (human GIP receptor [2]): 0.0347 nM
- cAMP EC50, in the presence of FBS and BSA (human GIP receptor [3]): 1.91 nM
- cAMP EC50, in the presence of FBS and BSA (human glucagon receptor [4]): 1.87 nM
- cAMP EC50, in the presence of FBS and BSA (human GLP-1 receptor [5]): 13 nM
- cAMP EC50, in the presence of 0.1% casein (human GIP receptor [6]): 0.0306 nM
- cAMP EC50, in the presence of 0.1% casein (human glucagon receptor [7]): 0.0343 nM
- cAMP EC50, in the presence of 0.1% casein (human GLP-1 receptor [8]): 0.103 nM
- Ki (human GLP-1 receptor [9]): 1.17 nM

B6: Example 6 (peptide)
peptide: Y[Aib]QGT[αMePhe(2-F)]TSDYSILLDKK([AEEA-γGlu-C20 diacid])AQHAFIEYLLEGGPSSGAPPPS-NH2
modifications: N-terminus assumed
SMILES: CC[C@H](C)[C@H](NC(=O)[C@H](Cc1ccccc1)NC(=O)[C@H](C)NC(=O)[C@H](Cc1c[nH]cn1)NC(=O)[C@H](CCC(N)=O)NC(=O)[C@H](C)NC(=O)[C@H](CCCCNC(=O)COCCOCCNC(=O)CC[C@H](NC(=O)CCCCCCCCCCCCCCCCCCC(=O)O)C(=O)O)NC(=O)[C@H](CCCCN)NC(=O)[C@H](CC(=O)O)NC(=O)[C@H](CC(C)C)NC(=O)[C@H](CC(C)C)NC(=O)[C@@H](NC(=O)[C@H](CO)NC(=O)[C@H](Cc1ccc(O)cc1)NC(=O)[C@H](CC(=O)O)NC(=O)[C@H](CO)NC(=O)[C@@H](NC(=O)[C@](C)(Cc1ccccc1F)NC(=O)[C@@H](NC(=O)CNC(=O)[C@H](CCC(N)=O)NC(=O)C(C)(C)NC(=O)[C@@H](N)Cc1ccc(O)cc1)[C@@H](C)O)[C@@H](C)O)[C@@H](C)CC)C(=O)N[C@@H](CCC(=O)O)C(=O)N[C@@H](Cc1ccc(O)cc1)C(=O)N[C@@H](CC(C)C)C(=O)N[C@@H](CC(C)C)C(=O)N[C@@H](CCC(=O)O)C(=O)NCC(=O)NCC(=O)N1CCC[C@H]1C(=O)N[C@@H](CO)C(=O)N[C@@H](CO)C(=O)NCC(=O)N[C@@H](C)C(=O)N1CCC[C@H]1C(=O)N1CCC[C@H]1C(=O)N1CCC[C@H]1C(=O)N[C@@H](CO)C(N)=O
notes: Synthetic acylated peptide
- Ki (human glucagon receptor [1]): 0.382 nM
- Ki (human GIP receptor [2]): 0.0388 nM
- cAMP EC50, in the presence of FBS and BSA (human GIP receptor [3]): 1.41 nM
- cAMP EC50, in the presence of FBS and BSA (human glucagon receptor [4]): 1.76 nM
- cAMP EC50, in the presence of FBS and BSA (human GLP-1 receptor [5]): 8.94 nM
- cAMP EC50, in the presence of 0.1% casein (human GIP receptor [6]): 0.0349 nM
- cAMP EC50, in the presence of 0.1% casein (human glucagon receptor [7]): 0.0293 nM
- cAMP EC50, in the presence of 0.1% casein (human GLP-1 receptor [8]): 0.115 nM
- Ki (human GLP-1 receptor [9]): 0.822 nM
